Source: publication PMC2699158

Target: taxol-stabilized microtubules
Test: co-sedimentation

**Q.** For “6×His-CLASP2(340–650), wild type (from UniProt O75122-3 340-650) (domain or fragment)”, which Kd is on record?
**A.** Its Kd is less than 300 nM.
